Reference: the nanobody polyreactivity screen of Harvey et al. (2022)

Assay: yeast display, Sf9 membrane polyspecificity reagent, FACS + sequencing; frameworks hold sequencing errors
How it was run: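 Using colony PCR, genes from sorted yeast display clones were amplified, then sequenced on MiSeq at 2 × 250 and filtered by CDR length. The clones had been stained with 10% biotinylated, detergent-solubilized Sf9 membrane reagent for 1 hour at 4 °C and sorted by FACS into low and high (top ~1%) gates on anti-HA and streptavidin fluorescence. Polyreactivity labels come from the gate of origin.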

Row | Sequence | polyreactivity (PSR sort gate)
1 | QVQLVESGGGLVQAGGSLRLSCAASGRTFLWNAMGWSRPAPGKERELVAAITSGGRTTYADSVKGRFTISRDNAKNTVYLQMNSLKPEDTAVYYCAAVSANQDFDYWGQGTQVTVSS | high polyreactivity
2 | QVQHVESGGGLVQAGGSLRLSCAASGRTFRLYAMGRYRMAPGKERELVAAITRGGRTNYADSVKGRFTISRDNAKNTVYLQMNSLKPEDTAVYYCAVAGFDRGQYVRYYYWGQGTQVTVSS | low polyreactivity
3 | QVQLVESGGGLVQAGGSLRLSCAASGSTLSDNAMGWYRQAPGKERELVARISGDGSTNYADSVKGRFTISRDNAKNTVYLQMNSLKPEDTAVYYCNAGTAGIYYYGKSDYWGQGTQVTVSS | low polyreactivity
4 | QVQLVESGGGLVQAGGSLRLSCAASGRIFQFYAMGWYRQAPGKERELVAAITTGGSTKYADSVKGRFTISRDNAKNTVYLQMNSLKPEDTAVYYCAARAHYYVYRPGIRRYDYWGQGTQVTVSS | high polyreactivity
5 | QVQLVESGGGLVQAGGSLRLSCAASGRTFFVNAMGWYRPAPGKERELVAAITWSGGSTYYADSVKGRFTISRDNAKNTVYLQMNSLKAEDTAVYYCNADYQWYLGGYDYWGQGTQVTVSS | high polyreactivity
6 | QVQLVESGGGLVQAGGSLRLSCAASGRILDYNAMGWYRQAPGKERELVADISGSGDSTYYADSVKGRFTISRDNAKNTVYLQMNSLKPEDTAVYYCNRQTVRPHSRAGYDYWGQGTQVTVSS | low polyreactivity
7 | QVQLVDSGGGLVQAEGSLRLSCAPSGIIFGGYAMGWYIPAPGKERELVAAISRSGGSTYYADSVKGRFTISRDNAKNTVYLQMNSLKPEDTAVYYCAADGGAYEYDYWGQGTQVTVSS | high polyreactivity
8 | QVQRVESGGGLVQAGGSLRLSCAASGSIFGPNTIGWSRQAPGKERDLVAAITRSGGSTYYADSVKGRFTISRDNAKNTVYLQMNSLKPEDTAVYYCAVGDGFEYDWGQGTQVTVSS | low polyreactivity
9 | QVQLVESGGGLVQAGGRLRLSCAASGIIFPRYMGWYRQAPGKERELVAAIRWSSDDTNYADSVKGRFTISRDNAKNTVYLQMNSLKPEDTAVYYCAAHSYYDRTIQFEFSARTYDYWGQGTQVTVSS | low polyreactivity
10 | QVQLVESGGGLVQAGGSLRLSCAASGSIFYRYAMGWYRQAPGKERELVAAISRSGGRTYYADSVKGRFTISRDNAKNTVYLQMNSLKPEDTAVYYCAAESTVGTDLGGDSWGQGTQVTVSS | high polyreactivity
11 | QVQLVESGGGLVQAGGSLRLSCHASGSTFTFNAMGWYRQAPGKERELVADITSGGRTNYADSVKGRFTISRDNAKNTVYLQMNSLKPEDTAVYYCAARWSAHEYPGYDSWGQGTQVTVSS | low polyreactivity
12 | QVQLVESGGGLVQAGGSLRLSCAASGRIFWSYAMGWYRQAPGKERELVAAITWRTGRTYYADSVKGRFTISRDNAKNTVYLQMNSLKPEDTAVYYCAAEGYLWGQSYNGLNYDSWGQGTQVTVSS | low polyreactivity
13 | QVQLVESGGGLVQAGGSLRLSCAASGSIFSDYAMGWYRQAPGKEREFVAAIDSSGSTYYADSVKGRFTISRDNAKNTVYLQMNSLKPEDTAVYYCAADHLLYSVYIYYYWGQGTQVTVSS | low polyreactivity
14 | QVQLVESGGGLVQAGGSLRLSCAASGRTFYYYAMGWYRQAPGNERELVAAISRGGGTNYADSVKGRFTISRDNAKNTVYLQMNSLKPEDTAVYYCAAARIGPQRYDYWGHGTQVTVSS | high polyreactivity
15 | QVQLVESGGGLVQAGGSLRLSCAASGFTFRRYAMGWYRQAPGKERELVARISFNGGSTFYADSVKGRFTISRDNAKNTVYLQMNSLKPEDTAVYYCAAVFGGRSLSRTYGYDYWGQGTQVTVSS | high polyreactivity
16 | QVQLVDSGGGLVQAGGSLRLSCAASGFIFYKYAMGWYRQATGKERELVAAISKRGGSTYYADSVKGRFTISRDNAKNTVYLQMNSLKPEYTAVYDCATDGGYSDTVRYVASDYWGQGTQVTVSS | high polyreactivity
17 | QVQLVESGGALVQAGGSLRLSCAASGPIFGVYAMGWYRQAPGKERELVAAITYTGASTYYADSVKGRFTISRDNAKNTVYLQMNSLKPEDTAVYYCAGRLWRRSRFDYWGQGTQVTVSS | high polyreactivity
18 | QVQLVESGGGLVQAGGSLRLSCAASGRIFTYNAMGWSRQAPGKERELVATITNGGRTYYADSVKGRFTISRDNAKNTVYLQMNSLKPEDTAVYYCNAGYITYWYAVFYQIDDYWGQGTQVTVSS | low polyreactivity
19 | QVQLVESGGGLVQAGGSLRLSCAASGIIFAYYTMGWYRQAPGKLRELVAAISWNGGRTYYADSVKGRFTISRDNAKNTVYLQINSLKPEDTAVYYCAARDASSFLRSYYWGQGTQVTVSS | high polyreactivity
20 | QVQLVESGGGLVQAGGSLSLICAASGSIFTRNAMGWYRQAPGKERELVAAISRRGVSTYYADSVKGRFTNSRDNAKNTVYLQMNSLKPEDTAVYYCNKLSSYVVARRTTEYDYWGQGTQVTVSS | high polyreactivity
21 | QVQLVESGGGIVQAGGSLRLSCAASGPTFYLYDTMGWYRQAPGKERELVAAISWDDGDTYYADSVKGRFTISRDNAKNTVYLQMNSLKPEDTAVYYCAAESLSGAHGYWGQGTQVTVSS | low polyreactivity
22 | QVQLVESGGGLVQAGGSLRLSCAASGSIFQGYAMGWYRQAPGKERELVAVITSSGGSTYYADSVKGRFTISRDNAKNTVYLQMNSLKPEDTAVYYCAVGLLVYSRTYIGQAFFRYNYWGQGTQVTVSS | high polyreactivity

Row | Sequence | polyreactivity (PSR sort gate)
23 | QVQLVESGGGLVQAGGSLRLSCAASGIIFRDNAMGWYRQAPGTERELVAAIDSSGGTTYADSVKGRFTISRDNAKNTVYLQMNSLKPEDTAVYYCATEVYSTVSYYGYDYYGRNYYYWGQGPQVTVSS | low polyreactivity
24 | QVHLVESAGGLVQAGGSLRLTCAASGSTFLFYAMGMYRQAPGKERELVAAISRSGTSTYYADSVKGRFTISRDNAKNTVYLQMNSLKPEDTAVYYCAADDYGGYYYWGQGTQVTVSS | high polyreactivity
25 | QVQLVESGGGLVQAGGSLRLSCAASGSNLPYYAMGWYRQAPVKERELVAAISYSGGSTYYADSVKGRFTISRDNAKNPVFLQMYSLKPEVTAVYDCNAVVRSPAHGFWGQCTQVTVSS | high polyreactivity
26 | QVQLVESGGGLVQAGGSLRISCAASGSIFPRYAMGWYRQAPGKERELVAAISWRGGRTYYADSVKGRFTISRDNAKNTVYLQMNSLKPEDTAVYYCAARWRQRKSVRYGQQGYDYWGQGTQVTVSS | high polyreactivity
27 | QVQLVESGGGLVQAGGSLRLSCAASGSIFHYYAMGWYRQAPGKERELVAAINSTGGSRTYYADSVKGRFTISRDNAKNTVYLRMNCLKPEDTAVYYCAADYRVVWRAYDYWGQGTQVTVSS | low polyreactivity
28 | QVQVVESGGGLVQAGGSLRLSCAASGSIFPFYVMGWYRQAPGKEREFVATISSRGGSTYYADSVKGRFTISRDNAKNTVYLQMNSLKPEDTAVYYCAAGWYRNDWGQRLHTYYYWGQGTQVTVSS | high polyreactivity
29 | QVQLVESGGGLVQAGGSLRLSCAASGIIFGRYAMGWYRQAPGKERELVAAISTSGGSTYYADSVKGRFTISRDNAKNTVYLQMNSLKPEDTAVYYCAARHREAQRRYDYWGQGTQVTVSS | high polyreactivity
30 | QVQLVESGGGLVQAGGSLRLSCAASGSTFRRYAMGWYRQAPGKERELVAAITWRGGSTYYADSVKGRFTISRDNAKNTVFLQMNSLKPEDTAVYYCATSDYYYDYWGQGTQVTVSS | high polyreactivity
31 | QVQLVESGGGLVQAGGSLRLSCAASGSIFELNAMGWYRQAPGKERELVAAITSSGSSTYYADSVKGRFTISRDNAKNTVYLQMNSLKPEDTAVYYGFRPHDYWGQGTQVTVSS | low polyreactivity
32 | QVQLVESGGGLVQAGGSLRLSCAASGLTFGVNAMGWYRQAPGKERELVAVITSGGNTYYADSVKGRFTISRDNAKNTVYLQMNSLKPEDTAVYYCAAYGRASWERDYWGQGTQVTVSS | low polyreactivity
33 | QVQLEESGGGLVQAGGSLRLICAASGRIFWLNAMGWYRQAPGKEREFVASITYGSDSTYYADSVKGRFTISRDNAKNTVYLQMNSLKPEDTAVYYCNREGWHYGPYVYWGQGTQVTVSS | low polyreactivity
34 | QVQLVESCGGLVQAGGSLRLSCAASGFTFRNYVMGWYRQAPGKERELVAAISSTGGSTYYADSVKGRFTISRDNAKNTVYLQMNSLKPEDTAVYYCAARYVVQWPRYGFDYWGQGTQVTVSS | high polyreactivity
35 | QVQLVESGGGLVQAGGSLRLSCAGSGSIFGRYVVGWYRLAPGKEREFVAAITYSGSSTYYADSVKWRFTISRDNAKNTVYVQINSLKPEDTAVYYCNTYPRSYYWMGYWGQGTQVTVSS | high polyreactivity
36 | QVQLVESGGGIVQAGGSLRLSCAASGSTLTIYAMGWYRQAPGKERELVAAISRSGGRTYYADSVKGRFTISRDNAKNTVYLQMNSLKPEDTAVYYCATQPVRDRPGGSRKKYYYWGLGTQVTVSS | high polyreactivity
37 | QVQLVESGGGLVQAGGSLRLSCAASGSIFGLYAMGWYRQAPGKERELVAVITYSVGTTYYADSVKGRFTISRDNAKNTVYLQMNSLKPEDTAVYYCAADLYWYYPWSAYYGEYDYWGQGTQVTVSS | low polyreactivity
38 | HCQLVESGGVLVQEGGSLRISCAASGYTFTPYAMGWYRQAPGKEREFVAGITWRTGRTYYADSVKGRFTISRDIAKNTVYLQMISLKPEDTAVYYCNKYHQRRYYWSYDYWGQGTQVTVSS | low polyreactivity
39 | QVQLVESGGGLVQAGGSLRLSCAASGIIFIAYAMGWYRQAPGKERELVADISIGGSTNYADSVKGRFTISRDNAKNTVYLQMNSQKPEDTAVYYCNAGGGFYGSTVEHDYWGQGTQVTVSS | low polyreactivity
40 | QVQLVESGGGLVQAGGSLRLSCAASGITFRYYTMGWYRQAPGKERELVAAITWSGSSTYYADSVKGRFTISRDNAKNTVYLQMNSLKPEDTAVYYCNAVPYDYLADYWGQGTQVTVST | low polyreactivity
41 | QVQLVESGGGLVQAGGSLRLSCAASGSTFYNNAMGWYRQAPGKEREFVAAIRYRGGSTYYADSVKGRFTISRDNAKNTVYLQMNSLKPEDTAVYYCAADQGVYRTYWVDYWGQGTQVTVSS | high polyreactivity
42 | QDQLVESAGGLVQAGGSLRLSCAASGRIFKSYAMGWYRQAPGKERELVASTSYTGGSTYYADSVKGRFTISRDNAKNTVYIQRNSLKPDETAVYYCAPKRVRSAGSYGYWGQGTQVTVSS | low polyreactivity
43 | QVQLVESGGGLVQAGGSLRLSCAASGLIFKYKAMGWYRQAPGKERELVAAISTSGGSTYYADSVKGRFTISRDNAKNTVYLQMNSLKPEDTAVYYCNAVAGRPFRYYYWGQGTQVTVSS | high polyreactivity
